Drawing on patent US20210380687A1 (ALBERT EINSTEIN COLLEGE OF MEDICINE, published 2021), this text covers Kd, koff and kon for three molecules.

The target of the assay is T1, human CEACAM1 (as used in Surface Plasmon Resonance) (human).
T1 chain: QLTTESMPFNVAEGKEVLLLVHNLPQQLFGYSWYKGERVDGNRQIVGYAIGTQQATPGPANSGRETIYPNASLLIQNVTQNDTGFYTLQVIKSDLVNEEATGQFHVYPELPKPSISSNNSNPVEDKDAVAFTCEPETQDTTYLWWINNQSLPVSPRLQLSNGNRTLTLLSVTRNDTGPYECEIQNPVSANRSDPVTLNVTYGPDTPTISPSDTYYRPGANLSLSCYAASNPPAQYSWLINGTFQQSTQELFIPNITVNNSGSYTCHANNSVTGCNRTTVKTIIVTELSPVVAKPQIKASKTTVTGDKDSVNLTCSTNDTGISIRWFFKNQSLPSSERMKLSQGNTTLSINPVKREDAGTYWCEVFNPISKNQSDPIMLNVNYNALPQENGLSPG
The experiment in a line: Surface Plasmon Resonance.

B1: monoclonal antibody 38B5 (antibody, V domains shown)
VH: QIQLVQSGPELKKPGETVKISCKASGYIFRNYGMNWVKQAPGKGLKWMGWINTYTGEPTYADDFKGRFAFSLETSASTAYLQINNLKNEDMATYFCARRGWLLTGGAMDYWGQGTSVTVSQ
VL: DIQMTQSPSSLSASLGERVSLTCRASQDIGSSLNWLQQEPDGTIKRLIYATSSLDSGVPKRFSGSRSGSDYSLTISSLESEDFVDYYCLQYVSSPWTFGGGTKLEIKR
notes: also called mAb 38B5
As usually defined, the Kd is the concentration at which binding is half-saturated. As a reminder, the koff is the first-order rate constant of dissociation. Read a low koff as a long-lived complex. One may read the kon as the rate constant with which the complex forms. B1 displayed a Kd of 0.589 nM, a koff of 0.000482 s⁻¹ and a kon of 818000 M⁻¹ s⁻¹.

B2: monoclonal antibody 25C8 (antibody, V domains shown)
VH: QVQLQQSGAELVRPGTSVKVSCKASGYAFTIYLIEWVKQRPGQGLEWIGVINPGSGGTNYNEKFKGKATLTADKSSSTAFMQLSSLTSDDSAVYFCARSYYYGSFAMDYWGQGTSVTVSQ
VL: DVQMTQTISSLSASLGDRVTISCRASQDIGNYLNWYQQKPDGTVKLLIYYTSRLHSGVPSRFSGSGSGTDYSLTISNLEQEDIATYFCQQGNTLRTFGGGTKLEIKR
notes: also called mAb 25C8
As for B2, the affinity, expressed as Kd, was 3.88 nM; the koff came out at 0.000193 s⁻¹; the kon was found to be 49600 M⁻¹ s⁻¹.

B3: monoclonal antibody 36B11 (antibody, V domains shown)
VH: QIQLVQSGPDLKKPGETVKISCKASGYIFRNYGMNWVKQAPGKGLKWMGWINTYTGEPTYADDFKGRFAFSLETSASTAYLQINNLKNEDMATYFCARDCGTSHYYAMDYWGQGT
VL: DIQMTQTTSSLSASLGDRVTISCRASQDISNYLNWYQQKPDGTVKLLIYYTSRLHSGVPSRFSGSGSGTDYSLSISNLEQEDIATYFCQQGNTFPLTFGAGTKLDLKR
notes: the VH entry is cut short at its C-terminus; also called mAb 36B11
Turning to B3, binding was characterised by a dissociation constant (Kd) of 1.42 nM, the off-rate (koff) worked out at 0.000108 s⁻¹ and the kon was found to be 76100 M⁻¹ s⁻¹.
